# Assay: soluble on expression in E. coli; label from the status in PepcDB or PDB records
row,Sequence,soluble on expression in E. coli
1,MSLLQEMTIKNFAIIESLSLTFQEGMTVLTGETGAGKSIIIDALGLLVGGRGSADFIRHGEERLELQGLFALAEDNLACRNALIENGIDASDDMVVLERSLFRSGKNSCRINGKLVTTVLLRQIGSKLIDIHSQHEHQELMNEEFHLSLLDRFASDKIKPALTKYQTNFKEYQTIEKEWQNWTKNERELAQRLDMLRFQQQEIENANLQAGEEDRLLEQKNILANFEKLNENLQGAYAAIQGEPGGLEFVGEAMRQMEAAASIHTDYKAVSEAISSSYYMLEDSMSQIRQSLDQLEFQPEELNQIESRLNDLNQLKRKYGKTIEDIIQYEQEISSEMEKLTDSESHVGHLETKLATLKAELTKQANTLTEIRKKAAVTLEKQIKQELNHLYMEKAIFSVRFEANKMELTDSGQDSVVFYMSTNPGEPLKPLAKIASGGELSRMMLALKTIFSRHQGITSIIFDEVDTGVSGRVGQAIAEKIYAVSVGSQVLCISHLPQVAAMANHHYYITKKVQNKRTTTSVTVLKGEEKVEEISRMIAGIEVTELTKQHAKEMIEQAEKVKQTYEGHHHHHH,soluble
2,MGHHHHHHSHMSEETATSDNDNSYARVRAVVMTRDDSSGGWLPLGGSGLSSVTVFKVPHQEENGCADFFIRGERLRDKMVVLECMLKKDLIYNKVTPTFHHWKIDDKKFGLTFQSPADARAFDRGIRRAIEDISQGCPESK,soluble
3,MGSDKIHHHHHHMSVQISVVAATLNEIDNIEQFIDGVEGVLKGMEFEIIVVDDNSSDGTKEYLARRMNEDTHVVVIENPYRFGMLRSLKLGIEKAGGEIVLVMDADMQHPPSAIPKLISRIVDGCDIVVGSRYVDGGSAGDRDAFRAALSRGAEFLAHALVPSSRMTSDPMSGFFAFRRDLRHDFAYRQTFATADYGAKILLIILAENRHAKVCDVGYVFQSRMRGKSKIVSGTSFLKRYLAELFEVMKLERRYRHMQ,not soluble
4,GSHMGFLSGKRILVTGVASKLSIAYGIAQAMHREGAELAFTYQNDKLKGRVEEFAAQLGSDIVLQCDVAEDASIDTMFAELGKVWPKFDGFVHSIGFAPGDQLDGDYVNAVTREGFKIAHDISSYSFVAMAKACRSMLNPGSALLTLSYLGAERAIPNYNVMGLAKASLEANVRYMANAMGPEGVRVNAISAGPIRTLAASGIKDFRKMLAHCEAVTPIRRTVTIEDVGNSAAFLCSDLSAGISGEVVHVDGGFSIAAMNELELK,soluble
5,MARKEAKMLYIFDLGNVIVDIDFNRVLGAWSDLTRIPLASLKKSFHMGEAFHQHERGEISDEAFAEALCHEMALPLSYEQFSHGWQAVFVALRPEVIAIMHKLREQGHRVVVLSNTNRLHTTFWPEEYPEIRDAADHIYLSQDLGMRKPEARIYQHVLQAEGFSPSDTVFFDDNADNIEGANQLGITSILVKDKTTIPDYFAKVLC,soluble
6,LGSMAAAAAQGGGGGEPRRTEGVGPGVPGEVEMVKGQPFDVGPRYTQLQYIGEGAYGMVSSAYDHVRKTRVAIKKISPFEHQTYCQRTLREIQILLRFRHENVIGIRDILRASTLEAMRDVYIVQDLMETDLYKLLKSQQLSNDHICYFLYQILRGLKYIHSANVLHRDLKPSNLLINTTCDLKICDFGLARIADPEHDHTGFLTEYVATRWYRAPEIMLNSKGYTKSIDIWSVGCILAEMLSNRPIFPGKHYLDQLNHILGILGSPSQEDLNCIINMKARNYLQSLPSKTKVAWAKLFPKSDSKALDLLDRMLTFNPNKRITVEEALAHPYLEQYYDPTDEPVAEEPFTFAMELDDLPKERLKELIFQETARFQPGVLEAP,soluble
7,MLIEMWSPVFKKHGEIREPICFHHGLNVIMGMDLADNSIGKSSSLLAIDFIFGGNSYLKSIAVKKLGDHPIYFCFQFEKKFYFSRDTANPDIILVCDKSYSPTGETMDLGIFLNKLKKRYHLDSPELSFRLAMSGFFRIAGKSNQNTDFPLQVYSSQKSSESITTLIQLFNLYDNIARYKERLKDKSDQLTTFRNARRYAFISNLVGGKKQFEANVSEIKRLEYDLAHLQDTHQDKIDSDDI,not soluble
8,MAHHHHHHMDLNDFLRNTKTAAQDGSAGVRTLLSGHKRFADTNEASAEASSSGAGASGKRPRRSGTAEGLNIRAAQEALAQERGNTSAQAQQQRAQAELLSEQAAARMVHQVLEYVMQVELGGRHNAAKGGIAPFVPSAAQLAAEKAMWTPAAGYVIHHVVPATLDTSPHTLESLMSVTEKERVPDGVRALRGTLQVFDTERDLVGGVRTGMAPHLRTHVLEVLEKGLHGRAWLRDDAAVATQISALGKPTTPDKGPSSVLLFGDLATASVANSDATSSARDTASAGDEASKPRSKGFSLAAFLNGNDPTSSSSDGEDP,not soluble
9,MSLFTFKKGLHLPYNKEFTKDKSIEIFKPKKELIFPLSQHIGAPCEPIVEVGQKVLVNEKIADSSAFVSSPIHSSVSGTIKDIREIQSINGSNTQAIIIENDSKYEKYPKENLKYSSKLSLKDVVKLVKDYGIVGLGGATFPCHVKLNVKEDKEIKYIIINAAECEPYLTCDHRVMLEYTEEIIGGLRILLELFPKALIYIGIEDNKLNAIDKFKSILGEDNKIKVMPLKSKYPQGSEKHLIYALTKLQVPSGKLPLDIGCIAFNVSTIYQLYASLINGLPLTERIITVTGDSIRSPKNLRVKIGTQVKDIIEFCGGFINKPNKIILGGPMMGTSVNSLDLPITKGTSGILCLSKVDTSPNSHCIRCGKCLNSCPMNLIPQKLNELALKDKFDEFEFLGGMDCLECGCCTFSCPAKISIVNNIRNAKKSLRNKSKNLEHHHHHH,soluble
10,MSLEVYYPGSVVFPADATLEQKVEMAAKVVPTLQQLAWQQMELTAFLHFGINTFTDSEWGDGKEDPALFNPVELDARQWVRILHEAGFRMVILTAKHHDGFCLWPTATTRHSVASSPWREGKGDVVKEVRAACEEYGMKFGIYLSPWDRNAECYGDSHRYNRFFVSQLTELLTHYGEVHEVWFDGANGEGPNGKRQEYDWETFYDTIRRLQPQAVMAIMGDDVRWVGNERGLGRTTEWSATVLTPGIYSRSKTERNRLGIRENSPDLGSREVLKEAGEIFWYPSEVDVSIRPGWFYHAAEDKKVKSLDKLVDIYFQSVGYNSVLLLNVPPDRRGLIHEADALRLKEWADYLGRAFAHDRVVDSARYAVVQGHAVEEYALESKTHINILMLQEDITKGQRTEAFTVEAWVDGAWQEIGRGTTIGYKRLLRIPAVETDRIRVRIEQEGHHHHHH,not soluble
11,MGSDKIHHHHHHMIQVLNLTTPETIKNYLHEALGKIEPFEQCILLDYPDHANIGDNLIWLGELLYLHNTRQSQITYNASVENFSVQEMDKCKSSCEIPIFLHGGGNLGDLWLKFQNFREYIISEYKENPIIIFPQSIYFQEEDNLIKAARIFNSHPNLTIFVRDNYSYQLATNYFSNCRIIKSPDAAFQLVNTPGIAAAYQNKSSILYHFRNDKELNLNQAGSPHTLDLPNLIVEDWASYKYESDSYKELPHNAVIQSFARVFHGWEQGKLFPDEWITRQIWKYFHPYTTAFSQSYNPESHRKAWSYMYQGVYQFKQHRLIITNRLHGHILSTLMGIPHIFLPNSYHKNEAFYEAWTYQIPFCRFVKDPEKIADTVRELIEISEIAKN,not soluble
12,MSLKTGRALRIAVLVSGRLNLWFSSSIIEGLNEVFHDEGYDISIYQMSSTEERSEFFDMLPVRRNVDAVIVISFDIASNEIRQLRSVDVPIIGINSSLPEERGFNAAVRIDDKQGSELAARHLMMLGHRDIVYIRSDREVTLHFSVQGRYESFMACCQANGVEPRVLVTDAGRNRISKVVTQLLSLDHMPTAIACQEDGIAVPLLFQLERNGFTVPNDISIIGYDDSVYARDLGLTTIRQTPVEMAREAARMTLALIEKQPLDEPFKTFPAQLIVRSTTARLHSEGHHHHHH,soluble
13,GAEFKEKPEAPTEQLDVACGQENLPVGAWPPGAAPAPFQYTPDHVVGPGADIDPTQITFPGCICVKTPCLPGTCSCLRHGENYDDNSCLRDIGSGGKYAEPVFECNVLCRCSDHCRNRVVQKGLQFHFQVFKTHKKGWGLRTLEFIPKGRFVCEYAGEVLGFSEVQRRIHLQTKSDSNYIIAIREHVYNGQVMETFVDPTYIGNIGRFLNHSCEPNLLMIPVRIDSMVPKLALFAAKDIVPEEELSYDYSGRYLNLTVSASKERLDHGKLRKPCYCGAKSCTAFLPFDSS,soluble

# — the DeepSol protein solubility set
